These results are taken from publication PMC8119438.

In the test the target is GST-Rab12 (mouse) (UniProt P35283). Nature of the test: pull-down; 20 μg GST, GST-Rab12 or GST-Rab12(K71R) on glutathione agarose beads, 18 h at 4 °C with 500 μg lysate of RBL cells transfected with T7-tagged RILP, RILP mutants, RILP-L1 or RILP-L2, 0.5 mM GTPγS; blot anti-T7 (Fig. 2b,c; Supplementary figure S3).
Sequence of UniProt P35283 (P35283 other isoform, or with tags, fused parts or gaps): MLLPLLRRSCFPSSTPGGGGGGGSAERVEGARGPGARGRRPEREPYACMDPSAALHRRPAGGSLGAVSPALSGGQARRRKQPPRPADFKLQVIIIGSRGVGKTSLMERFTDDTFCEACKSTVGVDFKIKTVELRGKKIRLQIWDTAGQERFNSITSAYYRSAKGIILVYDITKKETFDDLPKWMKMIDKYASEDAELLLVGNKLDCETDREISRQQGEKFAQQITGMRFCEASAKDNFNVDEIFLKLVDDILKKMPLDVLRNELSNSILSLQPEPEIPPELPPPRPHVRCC

B1: T7-RILP(L231A) (natural protein)
chain: MEPRRAAPRLPSQASSSVGAGSAAELVYHLAGALGTELQGLARRFGPDAAAGLVPLVVRALELLEKAAVGPAPDSLQVSAQQAEVELRRLREENQRLRQELGSGPQEERALLRQLKEVTDRQRDELRAHNRDLQRRSQETEALQEQLQRLLLINSELRHKLAAVQTQLRAAQDRERERQIAQDGSSQLAKEQSLEPDAATSDDPVDTQKQPGNLPEAVQCGFSREELKQIAQERNELKANVFLLKEELAYFQRELLTDHRVPGLLLEAMKVAVKKQRRKIKAKMLGTPEEAESSEDEDGSWLLLSNDKEDVPLVPESRIQNFFGLWYRGETEAPEAETSNPASSSLQKGEETPQQPHLQPVNSPPAPNS
Regarding B1, the percent by which the pulldown by Rab12 was impaired, against wild type RILP came out at 85%.

B2: T7-RILP(E233A) (natural protein)
chain: MEPRRAAPRLPSQASSSVGAGSAAELVYHLAGALGTELQGLARRFGPDAAAGLVPLVVRALELLEKAAVGPAPDSLQVSAQQAEVELRRLREENQRLRQELGSGPQEERALLRQLKEVTDRQRDELRAHNRDLQRRSQETEALQEQLQRLLLINSELRHKLAAVQTQLRAAQDRERERQIAQDGSSQLAKEQSLEPDAATSDDPVDTQKQPGNLPEAVQCGFSREELKQILQARNELKANVFLLKEELAYFQRELLTDHRVPGLLLEAMKVAVKKQRRKIKAKMLGTPEEAESSEDEDGSWLLLSNDKEDVPLVPESRIQNFFGLWYRGETEAPEAETSNPASSSLQKGEETPQQPHLQPVNSPPAPNS
Consider B2, for which the percent by which the pulldown by Rab12 was inhibited, against wild type RILP is 90%.
